Reference: article PMC9720396, “Autoreactivity and broad neutralization of antibodies against HIV-1 are governed by distinct mutations: Implications for vaccine design strategies” (Frontiers in Immunology, 2022)
Substitutions are numbered along the chain they refer to. In names and notes the source's numbering stands.

B1: IA2_E64K (antibody, V domains shown)
V domain 1: QVQLQESGPGVVKSSETLSLTCTVSGGSMGGTYWSWLRLSPGKGLEWIGYIFHTGHTNYNPSLKGRVSISVDTSEDQFSLRLRSVTAADTAVYFCASLPRGQLVNAYFRNWGRGTLVSVTA
V domain 2: SYELTQPPSVSVSPGQTATITCSGDKVASKNVCWYQVKPGQSPEVVMYENYKRPSGIPDRFSGSKSGSTATLTIRGTQATDEADYYCQVWDSFSTFVFGSGTQVTV
notes: as the heavy chain of m8 (IA2); as the light chain of m8 (IA2); recombinant IgG; also called the E64K mutant; IA2 E64K mutant; source: Expi293, transiently transfected, purified (Protein A agarose)
B2: IA2_N60S (antibody, V domains shown)
V domain 1: B1 V domain 1 with N60S, K64E
V domain 2: B1 V domain 2
notes: as the heavy chain of m8 (IA2); as the light chain of m8 (IA2); recombinant IgG; also called the N60S mutant; IA2 N60S mutant; source: Expi293, transiently transfected, purified (Protein A agarose)
B3: IA1, inferred late intermediate of the CH103-106 bnAb lineage (antibody, V domains shown)
V domain 1: B1 V domain 1 with N60S
V domain 2: B1 V domain 2
notes: as the heavy chain of m8 (IA2) with the two changes below; same light chain as IA2; recombinant IgG; also called 1A1; source: Expi293, transiently transfected, purified (Protein A agarose)
B4: CH103 VL I81T mutant (antibody, V domains shown)
V domain 1: B1 V domain 1 with H56E, N60S, T115S
V domain 2: SYELTQPPSVSVSPGQTATITCSGASTNVCWYQVKPGQSPEVVIFENYKRPSGIPDRFSGSKSGSTATLTIRGTQATDEADYYCQVWDSFSTFVFGSGTQVTV
notes: as the heavy chain of m10 (CH103); as the light chain of m10 (CH103); recombinant IgG; source: Expi293, transiently transfected, purified (Protein A agarose)
B5: CH103 VH S107I mutant (antibody, V domains shown)
V domain 1: B1 V domain 1 with H56E, N60S, T115I
V domain 2: B4 V domain 2 with T77I
notes: as for B4
B6: CH103 VH E56H mutant (antibody, V domains shown)
V domain 1: B1 V domain 1 with N60S, T115S
V domain 2: B4 V domain 2 with T77I
notes: as the heavy chain of m10 (CH103); as the light chain of m10 (CH103); recombinant IgG; also called the VH E56H mutant; source: Expi293, transiently transfected, purified (Protein A agarose)
B7: CH103, mature CD4 binding site bnAb (antibody, V domains shown)
V domain 1: B1 V domain 1 with H56E, N60S, T115S
V domain 2: B4 V domain 2 with T77I
notes: recombinant IgG; source: Expi293, transiently transfected, purified (Protein A agarose)
B8: CH103 VL E45D mutant (antibody, V domains shown)
V domain 1: B1 V domain 1 with H56E, N60S, T115S
V domain 2: B4 V domain 2 with E41D, T77I
notes: as the heavy chain of m10 (CH103); as the light chain of m10 (CH103); recombinant IgG; also called the VL E45D mutant; source: Expi293, transiently transfected, purified (Protein A agarose)
B9: CH103 mutant containing both the E56H and E45D mutations (antibody, V domains shown)
V domain 1: B1 V domain 1 with N60S, T115S
V domain 2: B4 V domain 2 with E41D, T77I
notes: as the heavy chain of m10 (CH103); as the light chain of m10 (CH103); recombinant IgG; the double mutant is named only in the results; also called CH103 VH E56H + VL E45D; source: Expi293, transiently transfected, purified (Protein A agarose)
B10: CH103 VL I48M mutant (antibody, V domains shown)
V domain 1: B1 V domain 1 with H56E, N60S, T115S
V domain 2: B4 V domain 2 with I44M, T77I
notes: as for B4
B11: CH106, mature CD4 binding site bnAb (antibody, V domains shown)
V domain 1: B1 V domain 1 with T23S, N60S, T115I
V domain 2: B1 V domain 2 with K30V, E44D, D84E
notes: as the heavy chain of m10 (CH103) with the three differences below; as the light chain of m10 (CH103) with the differences below and a 3-aa (DKV) insertion; recombinant IgG; source: Expi293, transiently transfected, purified (Protein A agarose)
B12: CH103 VL D85E mutant (antibody, V domains shown)
V domain 1: B1 V domain 1 with H56E, N60S, T115S
V domain 2: B4 V domain 2 with T77I, D81E
notes: as for B4
B13: IA2, inferred late intermediate of the CH103-106 bnAb lineage (antibody, V domains shown)
V domain 1: B1 V domain 1 with K64E
V domain 2: B1 V domain 2
notes: same light chain as IA1; recombinant IgG; source: Expi293, transiently transfected, purified (Protein A agarose)
B14: CH103 VL T31V mutant (antibody, V domains shown)
V domain 1: B1 V domain 1 with H56E, N60S, T115S
V domain 2: B4 V domain 2 with T27V, T77I
notes: as for B4
B15: CH103 VL mutant with the 3-aa insertion (DKV) (antibody, V domains shown)
V domain 1: B1 V domain 1 with H56E, N60S, T115S
V domain 2: B1 V domain 2 with K30T, M47I, Y48F, T80I
notes: as the heavy chain of m10 (CH103); as the light chain of m10 (CH103) with DKV inserted as in CH106; recombinant IgG; also called 3-aa (DKV) insertion; source: Expi293, transiently transfected, purified (Protein A agarose)
B16: CH103 VL F49Y mutant (antibody, V domains shown)
V domain 1: B1 V domain 1 with H56E, N60S, T115S
V domain 2: B4 V domain 2 with F45Y, T77I
notes: as for B4
B17: CH103 VH T23S mutant (antibody, V domains shown)
V domain 1: B1 V domain 1 with T23S, H56E, N60S, T115S
V domain 2: B4 V domain 2 with T77I
notes: as for B4

Target: T1, host protein UBE3A (Abcam), coupled to Luminex beads, Q05086
T1 chain: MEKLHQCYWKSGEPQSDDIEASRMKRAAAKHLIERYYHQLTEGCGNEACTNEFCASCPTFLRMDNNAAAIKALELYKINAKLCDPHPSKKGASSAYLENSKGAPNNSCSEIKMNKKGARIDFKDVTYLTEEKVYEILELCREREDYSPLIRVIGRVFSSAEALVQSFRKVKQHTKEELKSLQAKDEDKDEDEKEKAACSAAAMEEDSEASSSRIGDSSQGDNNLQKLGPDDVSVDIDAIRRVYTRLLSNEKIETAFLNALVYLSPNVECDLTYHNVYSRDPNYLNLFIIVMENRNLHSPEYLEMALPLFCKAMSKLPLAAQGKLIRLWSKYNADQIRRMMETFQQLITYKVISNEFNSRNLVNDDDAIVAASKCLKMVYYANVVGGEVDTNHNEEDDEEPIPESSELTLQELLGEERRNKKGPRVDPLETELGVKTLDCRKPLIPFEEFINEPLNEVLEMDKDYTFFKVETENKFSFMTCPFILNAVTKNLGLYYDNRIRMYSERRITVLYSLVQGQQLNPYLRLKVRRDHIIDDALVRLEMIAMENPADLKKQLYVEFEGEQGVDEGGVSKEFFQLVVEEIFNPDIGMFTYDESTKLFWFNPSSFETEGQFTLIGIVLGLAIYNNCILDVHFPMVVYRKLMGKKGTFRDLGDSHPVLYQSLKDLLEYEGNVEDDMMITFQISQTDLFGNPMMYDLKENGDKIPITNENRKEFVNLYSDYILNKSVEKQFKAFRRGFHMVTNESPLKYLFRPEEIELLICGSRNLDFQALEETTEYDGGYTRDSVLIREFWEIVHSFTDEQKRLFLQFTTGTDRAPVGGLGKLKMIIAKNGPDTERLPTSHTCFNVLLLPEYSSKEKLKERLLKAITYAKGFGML
Assay: Luminex bead assay
Details: chain shown with the change; left panel; highest antibody concentration plotted, est. 2000 ng/ml; parent: est. 12; read off a plot
B1 was tested, and the response was 2200 gMFI. In the case of B2, the response is reported as 8.5 gMFI.

Target: T2, UBE3A on the ProtoArray human protein microarray, Q05086
T2 chain: T1 chain
Assay: ProtoArray protein array
Details: chain shown with the change; red circle = UBE3A; x coordinate of the circle; parent: est. 45; read off a plot
With B2 the response was 45 MFI.

These binders were tested against host proteins on the ProtoArray (9,400 human proteins) (human) (assay: peptide or protein array; ProtoArray (Invitrogen) with 9,400 human proteins, in duplicate; 2 µg/ml recombinant Ab, 1.5 hours at 4°C; detected with Alexa Fluor 647 anti-human IgG; compared with the control Ab 151K). Details: not given.
For B1, the polyreactivity index (PI) was 0.14. In the case of B3, the polyreactivity index (PI) is reported as 0.64.

Each binder was assayed against T3, host protein UBE3A (Abcam), coupled to Luminex beads (Homo sapiens, UniProt Q05086) (assay: Luminex bead-based binding assay; UBE3A (Abcam) covalently linked to carboxylated beads; Abs serially diluted 1:3 from 2 µg/ml in PBS with 0.05% NaN3, 0.05% Tween 20, 1% BSA and 1% milk; 2 hours at room temperature; detected with PE goat anti-human IgG). Details: both partners purified.
T3 construct: UBE3A, host protein; bought from Abcam (printed there as UBE34); also called UBE34; source: bought: Abcam
B4: binds. B5: binds. B6: binds. B7: binds. B8: binds. B9: binds. With B10 the “fold reduction of binding against parental CH103” value was ~10 fold. B11: binds. B12: binds. B2: no binding (tested: 2 µg/ml). B13: no binding (tested: 2 µg/ml). B14: binds. B15: binds. With B16 the “fold reduction of binding against parental CH103” value was ~10 fold. B17: binds.

Each binder was assayed against T4, Cen B (Homo sapiens (assumed), UniProt P07199) (assay: ELISA; autoantigen ELISA (legend: Athena autoantigen assay); antigens coated at 20 µg/ml overnight at 4°C; Abs in serial dilutions 45 min at RT; HRP anti-human IgG, TMB, 450 nm). Details: both partners purified.
T4 construct: Cen B autoantigen (centromere protein B) of the autoantigen ELISA
T4 sequence (P07199 whole entry): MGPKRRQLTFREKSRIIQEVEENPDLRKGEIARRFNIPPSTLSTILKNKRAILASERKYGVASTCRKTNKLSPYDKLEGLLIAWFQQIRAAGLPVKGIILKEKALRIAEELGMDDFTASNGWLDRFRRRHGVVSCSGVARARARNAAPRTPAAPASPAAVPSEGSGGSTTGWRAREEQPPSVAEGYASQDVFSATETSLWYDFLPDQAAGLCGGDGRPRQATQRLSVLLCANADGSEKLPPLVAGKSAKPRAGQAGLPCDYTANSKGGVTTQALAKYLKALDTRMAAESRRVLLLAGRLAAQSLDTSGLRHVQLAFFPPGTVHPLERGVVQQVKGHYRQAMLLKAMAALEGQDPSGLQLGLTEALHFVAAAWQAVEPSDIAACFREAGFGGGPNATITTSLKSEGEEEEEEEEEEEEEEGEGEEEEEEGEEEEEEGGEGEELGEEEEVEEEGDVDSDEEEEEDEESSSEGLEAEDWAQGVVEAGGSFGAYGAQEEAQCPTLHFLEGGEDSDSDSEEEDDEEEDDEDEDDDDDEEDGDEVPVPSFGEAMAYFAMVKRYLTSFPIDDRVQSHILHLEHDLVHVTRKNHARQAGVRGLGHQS
B1: binds. B6: binds.

These binders were tested against T5, UBE3A on the ProtoArray human protein microarray (Homo sapiens, UniProt Q05086) (assay: peptide or protein array; ProtoArray (Invitrogen) with 9,400 human proteins, in duplicate; 2 µg/ml recombinant Ab, 1.5 hours at 4°C; detected with Alexa Fluor 647 anti-human IgG; compared with the control Ab 151K). Details: both partners purified.
T5 construct: UBE3A, one of the 9,400 human proteins on the ProtoArray; source: bought: Invitrogen ProtoArray
B1 was tested, and the “fold higher binding than Abs without E64K” value was ~10 fold. In the case of B3, the “fold higher binding than Abs without E64K” value is reported as ~10 fold.
